Results on one molecule are retold here after PMC10999177, “miR‐1246 promotes osteosarcoma cell migration via NamiRNA‐enhancer network dependent on Argonaute 2”.

The target in this data set is hAGO2 (Homo sapiens, UniProt Q9UKV8 1-859). Nature of the data set: EMSA; 20 nM probe, binding buffer of cited ref. 28 (composition and pH not given), on ice 30 min; 5% native PAGE, 0.5x TBE, 100 V 50 min. Conditions: protein: recombinant; tags: MBP-tag removed by thrombin; HisTrap purification (His tag implied); label: 5'-Cy5; single strand. In general terms: A gel shift assay detects complexes by their altered migration in electrophoresis.
Chain of hAGO2 (Q9UKV8 whole entry): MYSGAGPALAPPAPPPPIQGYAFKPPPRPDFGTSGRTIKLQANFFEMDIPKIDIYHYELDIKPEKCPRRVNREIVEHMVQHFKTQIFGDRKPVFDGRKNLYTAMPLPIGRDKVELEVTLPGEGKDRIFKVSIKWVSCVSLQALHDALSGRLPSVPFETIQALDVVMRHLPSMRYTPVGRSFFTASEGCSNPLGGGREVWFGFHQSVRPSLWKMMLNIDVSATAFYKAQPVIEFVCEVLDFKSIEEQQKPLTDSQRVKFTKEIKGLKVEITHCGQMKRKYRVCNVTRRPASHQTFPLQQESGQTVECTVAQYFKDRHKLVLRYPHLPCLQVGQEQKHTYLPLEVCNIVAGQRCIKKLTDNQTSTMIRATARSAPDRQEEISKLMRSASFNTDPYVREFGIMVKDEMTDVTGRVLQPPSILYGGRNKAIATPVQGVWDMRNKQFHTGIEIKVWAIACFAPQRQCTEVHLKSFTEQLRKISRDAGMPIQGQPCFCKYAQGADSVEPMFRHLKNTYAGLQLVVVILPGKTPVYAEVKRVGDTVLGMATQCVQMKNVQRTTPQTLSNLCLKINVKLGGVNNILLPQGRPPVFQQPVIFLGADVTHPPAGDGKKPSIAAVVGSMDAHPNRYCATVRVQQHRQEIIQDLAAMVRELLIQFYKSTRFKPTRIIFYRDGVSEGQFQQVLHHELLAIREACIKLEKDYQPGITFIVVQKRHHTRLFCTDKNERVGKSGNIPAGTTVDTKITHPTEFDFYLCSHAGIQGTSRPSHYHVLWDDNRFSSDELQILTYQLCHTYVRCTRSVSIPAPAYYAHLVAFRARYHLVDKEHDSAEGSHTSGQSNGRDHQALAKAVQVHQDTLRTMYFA

With AAUGGAUUUUUGGAGCAGG (ssRNA) [5'Cy5-miR-1246], the Kd (in general, a measure of binding affinity in units of concentration) stood at 12.2 ± 1.8 nM.
